Consider five molecules from paper PMC12584684, “A minimal SufB2C2 complex functions as a [4Fe-4S] cluster scaffold in methanogenic archaea” (Microbiology Spectrum, 2025).

For one test, the system named is T1, MTH SufC.
T1 construct: pET15b N-terminal His6-tag, E. coli Rosetta 2(DE3), anoxic Ni-NTA; monomer 30 kDa, dimer by SEC
Kind of test: malachite green Pi release ATPase assay. Format: biochemical, Methanothermococcus thermolithotrophicus. The conditions noted are these: 60°C, pH 7.5, 5 mM MgCl2, 0-2 mM ATP, holo-form, anoxic. From the text:
malachite green Pi release ATPase assay on MTH SufC | kinetic parameters (Vmax, Km, kcat, and catalytic efficiency) for holo-forms of MTH SufC and SufB2C2

The next test deals with T2, MTH SufB2C2.
T2 construct: gene sufC; N-terminal His6-SufC co-expressed with untagged SufB in E. coli Rosetta 2(DE3); SufB2C2 heterotetramer, ~156 kDa by SEC; with Fe-S cluster assembly protein SufB
Kind of test: malachite green Pi release ATPase assay. Format: biochemical, Methanothermococcus thermolithotrophicus. Conditions: 60°C, pH 7.5, 5 mM MgCl2, 0-2 mM ATP, holo-form, anoxic. An excerpt:
malachite green Pi release ATPase assay on MTH SufB2C2 | kinetic parameters (Vmax, Km, kcat, and catalytic efficiency) for holo-forms of MTH SufC and SufB2C2

A further test has as its target T3, MMP SufB2C2 (Methanococcus maripaludis, UniProt Q6LY25).
T3 construct: gene MMP1168; sufCB operon, N-terminal Strep-tag on SufC, expressed in M. maripaludis S0001 and purified anoxically; SufB2C2 heterotetramer; with Fe-S cluster assembly protein SufB
T3 sequence (Q6LY25 1-248): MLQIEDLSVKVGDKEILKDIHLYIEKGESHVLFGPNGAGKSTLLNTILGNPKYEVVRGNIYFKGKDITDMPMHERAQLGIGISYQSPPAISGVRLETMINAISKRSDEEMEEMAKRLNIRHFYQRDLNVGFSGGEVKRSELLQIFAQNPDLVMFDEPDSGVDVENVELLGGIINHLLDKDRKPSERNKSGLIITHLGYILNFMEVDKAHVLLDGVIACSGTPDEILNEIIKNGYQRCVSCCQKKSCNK
T3 sequence (Q6LY24 1-418 partner): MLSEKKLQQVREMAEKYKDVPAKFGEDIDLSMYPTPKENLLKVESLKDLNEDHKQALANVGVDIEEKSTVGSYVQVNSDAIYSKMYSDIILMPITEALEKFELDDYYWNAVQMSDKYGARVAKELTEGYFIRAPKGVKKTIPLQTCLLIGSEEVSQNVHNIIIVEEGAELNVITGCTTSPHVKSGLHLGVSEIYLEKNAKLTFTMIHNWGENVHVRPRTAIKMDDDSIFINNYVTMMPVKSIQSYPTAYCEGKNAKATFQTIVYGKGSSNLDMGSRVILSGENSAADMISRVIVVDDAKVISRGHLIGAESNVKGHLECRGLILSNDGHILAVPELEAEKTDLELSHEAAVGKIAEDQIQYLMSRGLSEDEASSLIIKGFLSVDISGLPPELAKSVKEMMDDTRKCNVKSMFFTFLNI
Put plainly: iron quantification, UV-visible and EPR spectroscopy, as purified. The conditions noted are these: anoxic purification from native host; EPR at 10 K after 5 mM dithionite. Format: binding.

Test [1] deals with His6-tagged Methanothermococcus thermolithotrophicus SufB (Methanothermococcus thermolithotrophicus). Kind of test: SEC; Superdex 200 10/300 GL, 50 mM sodium HEPES, 200 mM NaCl, 5 mM MgCl2, pH 7.5; samples pretreated with 10 mM EDTA and 10 mM DTH overnight; calibrated with standards of 29-700 kDa; fractions on SDS-PAGE. On the technique in general: SEC sorts molecules by how far they enter the pores of the column.

In test [2] the target is His6-tagged Methanothermococcus thermolithotrophicus SufC (Methanothermococcus thermolithotrophicus). The description is as above.
Test [3] shares this target.
For test [4] the target is unchanged. This is another data set of the same source.

Usually Km stands for the concentration of substrate that gives half-maximal velocity. Turning to `Nc1ncnc2c1ncn2[C@@H]1O[C@H](COP(=O)(O)OP(=O)(O)OP(=O)(O)O)[C@@H](O)[C@H]1O` [ATP], the Km was found to be 1900 ± 800 µM in the test with MTH SufC and 2600 ± 700 µM in the test with MTH SufB2C2.

As to `[S]12[Fe]3[S]4[Fe]1[S]1[Fe]2[S]3[Fe]41` [[4Fe-4S] cluster], the “Fe atoms per protomer” value at MMP SufB2C2 was determined as 1.6 ± 0.3 Fe per protomer.

For orientation: stoichiometry N means a count of units in the complex or per binding partner. “His6-tagged Methanothermococcus thermolithotrophicus SufB (natural protein)”: the stoichiometry N in test [1] worked out at 2.

For “His6-tagged Methanothermococcus thermolithotrophicus SufC (natural protein)”, the stoichiometry N in test [2] was 2.

For “untagged Methanothermococcus thermolithotrophicus SufB (natural protein)”, the activation of apo-AcnB (Fe-S cluster transfer, aconitase activity) by the MTH SufB2C2 complex against MTH SufC alone in test [3] worked out at 2 fold. Moreover, the ATPase activity (malachite green) of the MTH SufB2C2 complex against MTH SufC alone at 60°C in test [4] was found to be 7 fold.
